The text below walks through data of the RNAGym collection of RNA variant scans (doi:10.1021/acssynbio.7b00057).

The chains are these.
B1: Pistol ribozyme (parent)
chain: GGGUCGUUGUUCCAUAAUCGCGUGGAUAUGGCACGCAAGUUUCUACCGGGCACCGUAAAUGUCCGACUGGAGCCGUUCGGGCGGCUAUAAACAGACCUCAGGCCCGAAGCGUGGCGGCACCUGCCGCCGGUGGUAAAAAAGAUCGGAAGAGCACACGUCU

Variants of B1 are the subject of this data set. Briefly: aptazyme ON/OFF ratio, guanine; higher = stronger switching; co-transcriptional cleavage with and without guanine.
For GGGUCGUGACGGUAUAAUCGCGUGGAUAUGGCACGCAAGUUUCUACCGGGCACCGUAAAUGUCCGACUGGAGCCGUUCGGGCGGCUAUAAACAGACCUCAGGCCCGAAGCGUGGCGGCACCUGCCGCCGGUGGUAAAAAAGAUCGGAAGAGCACACGUCU [U8G G9A U10C U11G C12G C13U], the “aptazyme ON/OFF ratio” value was 1.14.
For the variant GGGUCGACUUUCCAUAAUCGCGUGGAUAUGGCACGCAAGUUUCUACCGGGCACCGUAAAUGUCCGACUGGAGCCGUUCGGGCGGCUAUAAACAGACCUCAGGCCCGAAGCGUGGCGGCACCUGCCGCCGGUGGUAAAAAAGAUCGGAAGAGCACACGUCU [U7A U8C G9U], the “aptazyme ON/OFF ratio” value worked out at 1.94.
Regarding GGGUCGGGAGUGUAUAAUCGCGUGGAUAUGGCACGCAAGUUUCUACCGGGCACCGUAAAUGUCCGACUGGAGCCGUUCGGGCGGCUAUAAACAGACCUCAGGCCCGAAGCGUGGCGGCACCUGCCGCCGGUGGUAAAAAAGAUCGGAAGAGCACACGUCU [U7G U8G G9A U10G C12G C13U], the “aptazyme ON/OFF ratio” value was found to be 1.55.
In the case of GGGUCGGACGUGUAUAAUCGCGUGGAUAUGGCACGCAAGUUUCUACCGGGCACCGUAAAUGUCCGACUGGAGCCGUUCGGGCGGCUAUAAACAGACCUCAGGCCCGAAGCGUGGCGGCACCUGCCGCCGGUGGUAAAAAAGAUCGGAAGAGCACACGUCU [U7G U8A G9C U10G C12G C13U], the “aptazyme ON/OFF ratio” value is 1.18.
The value for GGGUCGCGAAAUUAUAAUCGCGUGGAUAUGGCACGCAAGUUUCUACCGGGCACCGUAAAUGUCCGACUGGAGCCGUUCGGGCGGCUAUAAACAGACCUCAGGCCCGAAGCGUGGCGGCACCUGCCGCCGGUGGUAAAAAAGAUCGGAAGAGCACACGUCU [U7C U8G G9A U10A U11A C12U C13U] was 1.16; that for GGGUCGGUGUUGAAUAAUCGCGUGGAUAUGGCACGCAAGUUUCUACCGGGCACCGUAAAUGUCCGACUGGAGCCGUUCGGGCGGCUAUAAACAGACCUCAGGCCCGAAGCGUGGCGGCACCUGCCGCCGGUGGUAAAAAAGAUCGGAAGAGCACACGUCU [U7G C12G C13A] was 1.08; that for GGGUCGGUCCCAGAUAAUCGCGUGGAUAUGGCACGCAAGUUUCUACCGGGCACCGUAAAUGUCCGACUGGAGCCGUUCGGGCGGCUAUAAACAGACCUCAGGCCCGAAGCGUGGCGGCACCUGCCGCCGGUGGUAAAAAAGAUCGGAAGAGCACACGUCU [U7G G9C U10C U11C C12A C13G] was 1.09.
The value for GGGUCGUUUGCGAAUAAUCGCGUGGAUAUGGCACGCAAGUUUCUACCGGGCACCGUAAAUGUCCGACUGGAGCCGUUCGGGCGGCUAUAAACAGACCUCAGGCCCGAAGCGUGGCGGCACCUGCCGCCGGUGGUAAAAAAGAUCGGAAGAGCACACGUCU [G9U U10G U11C C12G C13A] was 1.27.
Next, GGGUCGUGCGUGCAUAAUCGCGUGGAUAUGGCACGCAAGUUUCUACCGGGCACCGUAAAUGUCCGACUGGAGCCGUUCGGGCGGCUAUAAACAGACCUCAGGCCCGAAGCGUGGCGGCACCUGCCGCCGGUGGUAAAAAAGAUCGGAAGAGCACACGUCU [U8G G9C U10G C12G]: 1.19.
With GGGUCGACGAGGGAUAAUCGCGUGGAUAUGGCACGCAAGUUUCUACCGGGCACCGUAAAUGUCCGACUGGAGCCGUUCGGGCGGCUAUAAACAGACCUCAGGCCCGAAGCGUGGCGGCACCUGCCGCCGGUGGUAAAAAAGAUCGGAAGAGCACACGUCU [U7A U8C U10A U11G C12G C13G], the “aptazyme ON/OFF ratio” value turned out to be 1.28.
Next, GGGUCGCGGAUCCAUAAUCGCGUGGAUAUGGCACGCAAGUUUCUACCGGGCACCGUAAAUGUCCGACUGGAGCCGUUCGGGCGGCUAUAAACAGACCUCAGGCCCGAAGCGUGGCGGCACCUGCCGCCGGUGGUAAAAAAGAUCGGAAGAGCACACGUCU [U7C U8G U10A]: 2.08; GGGUCGCUUUCGUAUAAUCGCGUGGAUAUGGCACGCAAGUUUCUACCGGGCACCGUAAAUGUCCGACUGGAGCCGUUCGGGCGGCUAUAAACAGACCUCAGGCCCGAAGCGUGGCGGCACCUGCCGCCGGUGGUAAAAAAGAUCGGAAGAGCACACGUCU [U7C G9U U11C C12G C13U]: 1.07.
Take GGGUCGGGCGGAGAUAAUCGCGUGGAUAUGGCACGCAAGUUUCUACCGGGCACCGUAAAUGUCCGACUGGAGCCGUUCGGGCGGCUAUAAACAGACCUCAGGCCCGAAGCGUGGCGGCACCUGCCGCCGGUGGUAAAAAAGAUCGGAAGAGCACACGUCU [U7G U8G G9C U10G U11G C12A C13G]: the “aptazyme ON/OFF ratio” value was 1.15.
The value for GGGUCGUGGUGGGAUAAUCGCGUGGAUAUGGCACGCAAGUUUCUACCGGGCACCGUAAAUGUCCGACUGGAGCCGUUCGGGCGGCUAUAAACAGACCUCAGGCCCGAAGCGUGGCGGCACCUGCCGCCGGUGGUAAAAAAGAUCGGAAGAGCACACGUCU [U8G U11G C12G C13G] was 1.08.
On to GGGUCGGCUGGGUAUAAUCGCGUGGAUAUGGCACGCAAGUUUCUACCGGGCACCGUAAAUGUCCGACUGGAGCCGUUCGGGCGGCUAUAAACAGACCUCAGGCCCGAAGCGUGGCGGCACCUGCCGCCGGUGGUAAAAAAGAUCGGAAGAGCACACGUCU [U7G U8C G9U U10G U11G C12G C13U], for which the “aptazyme ON/OFF ratio” value was 1.25.
As to GGGUCGUCUUCUUAUAAUCGCGUGGAUAUGGCACGCAAGUUUCUACCGGGCACCGUAAAUGUCCGACUGGAGCCGUUCGGGCGGCUAUAAACAGACCUCAGGCCCGAAGCGUGGCGGCACCUGCCGCCGGUGGUAAAAAAGAUCGGAAGAGCACACGUCU [U8C G9U U11C C12U C13U], the “aptazyme ON/OFF ratio” value was found to be 1.1.
Next, GGGUCGACACCCUAUAAUCGCGUGGAUAUGGCACGCAAGUUUCUACCGGGCACCGUAAAUGUCCGACUGGAGCCGUUCGGGCGGCUAUAAACAGACCUCAGGCCCGAAGCGUGGCGGCACCUGCCGCCGGUGGUAAAAAAGAUCGGAAGAGCACACGUCU [U7A U8C G9A U10C U11C C13U]: 1.02; GGGUCGAGUAGUGAUAAUCGCGUGGAUAUGGCACGCAAGUUUCUACCGGGCACCGUAAAUGUCCGACUGGAGCCGUUCGGGCGGCUAUAAACAGACCUCAGGCCCGAAGCGUGGCGGCACCUGCCGCCGGUGGUAAAAAAGAUCGGAAGAGCACACGUCU [U7A U8G G9U U10A U11G C12U C13G]: 1.16.
